Data published in patent US10933132B2, “Combination of epigenetic factors and bispecific compounds targeting CD33 and CD3 in the treatment of myeloid leukemia” (AMGEN RESEARCH (MUNICH) GMBH, priority 2013, dated 2021).

System: KG1α AML cells
Experiment: G-CSF up-regulation of CD33 on AML cell lines, flow cytometry
Assay type: cell-based
Conditions: 10 days; for CD33 MFI Ratio: KG1α, untreated 16.5
Protocol: AML cell lines OCI-AML3 and KG1α were seeded in 24-well plates at 5×10^5 cells/ml on day 0. Cells were either left untreated (UT) or treated with 200 ng/ml (C1) or 2000 ng/ml (C2) G-CSF (Peprotech) for 10 days. G-CSF was freshly added to the cultures biweekly. On day 10, cells were harvested and analyzed for changes in CD33 surface expression by flow cytometry.

B1: G-CSF: glycoprotein cytokine that stimulates the bone marrow to produce granulocytes and stem cells (Peprotech) (protein, UniProt P09919 31-207, looked up)
Granulocyte …: TPLGPASSLPQSFLLKCLEQVRKIQGDGAALQEKLVSECATYKLCHPEELVLLGHSLGIPWAPLSSCPSQALQLAGCLSQLHSGLFLYQGLLQALEGISPELGPTLDTLQLDVADFATTIWQQMEELGMAPALQPTQGAMPAFASAFQRRAGGVLVASHLQSFLEVSYRVLRHLAQP
upregulation of CD33 (in words) (KG1α AML cells, 200 and 2000 ng/ml): low upregulation | CD33 MFI Ratio (C1 = 200 ng/ml G-CSF): 17.9 | CD33 MFI Ratio (C2 = 2000 ng/ml G-CSF): 19.2
